Each substance was assayed against HER3 on HER3-overexpressing HEK293 cells (human) (UniProt P21860) (assay: flow cytometry on cells; stable HEK293 cells expressing HER3 or HER4; purified NRG-1 mutants at 1 and 10 μg/mL, 4 °C, 1 h; goat antihuman Alexa Fluor 647).
Sequence of HER3 on HER3-overexpressing HEK293 cells (human) (P21860 20-1342): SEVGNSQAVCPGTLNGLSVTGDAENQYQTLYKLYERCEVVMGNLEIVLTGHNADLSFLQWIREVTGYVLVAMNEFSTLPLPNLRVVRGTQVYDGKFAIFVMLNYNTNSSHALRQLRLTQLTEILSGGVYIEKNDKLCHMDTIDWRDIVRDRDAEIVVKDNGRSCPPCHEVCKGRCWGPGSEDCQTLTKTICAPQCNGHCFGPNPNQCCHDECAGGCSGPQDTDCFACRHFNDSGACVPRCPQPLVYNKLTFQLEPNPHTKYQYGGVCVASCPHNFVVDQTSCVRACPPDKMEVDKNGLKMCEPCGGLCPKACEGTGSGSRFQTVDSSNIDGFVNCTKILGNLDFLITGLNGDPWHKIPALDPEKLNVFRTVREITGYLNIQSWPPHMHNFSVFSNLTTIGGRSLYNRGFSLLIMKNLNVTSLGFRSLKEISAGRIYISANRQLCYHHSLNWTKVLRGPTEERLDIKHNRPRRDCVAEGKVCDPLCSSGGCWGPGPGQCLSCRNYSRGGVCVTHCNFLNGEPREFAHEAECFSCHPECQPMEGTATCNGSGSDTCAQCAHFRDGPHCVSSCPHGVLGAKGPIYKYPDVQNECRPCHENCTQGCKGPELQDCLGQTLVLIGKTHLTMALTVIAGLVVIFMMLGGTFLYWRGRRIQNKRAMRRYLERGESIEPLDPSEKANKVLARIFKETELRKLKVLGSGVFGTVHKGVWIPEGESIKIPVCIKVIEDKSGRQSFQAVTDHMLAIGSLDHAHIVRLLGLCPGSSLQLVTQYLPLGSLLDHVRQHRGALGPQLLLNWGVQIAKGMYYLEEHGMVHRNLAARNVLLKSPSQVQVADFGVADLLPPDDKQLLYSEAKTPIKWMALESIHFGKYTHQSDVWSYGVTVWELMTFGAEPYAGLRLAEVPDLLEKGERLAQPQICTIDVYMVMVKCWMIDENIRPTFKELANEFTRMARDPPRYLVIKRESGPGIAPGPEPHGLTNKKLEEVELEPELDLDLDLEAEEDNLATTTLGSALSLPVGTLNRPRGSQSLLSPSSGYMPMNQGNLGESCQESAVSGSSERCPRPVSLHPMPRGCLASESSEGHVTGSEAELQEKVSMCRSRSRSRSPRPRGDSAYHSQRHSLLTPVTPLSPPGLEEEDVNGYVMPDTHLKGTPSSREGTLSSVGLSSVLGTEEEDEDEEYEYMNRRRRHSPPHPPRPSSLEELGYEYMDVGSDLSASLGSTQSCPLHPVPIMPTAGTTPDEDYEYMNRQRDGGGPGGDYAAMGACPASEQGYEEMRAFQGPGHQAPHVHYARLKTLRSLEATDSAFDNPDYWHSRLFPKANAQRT

Substance | ratio of median binding fluorescence to the parental clone
NRG1-MFc variant P29D (Fc fusion) | < 0.8
NRG1-MFc variant H2T (Fc fusion) | < 0.8
NRG1-MFc variant T41A (Fc fusion) | < 0.8
NRG1-MFc variant H2E (Fc fusion) | < 0.8
NRG1-MFc variant K24G (Fc fusion) | < 0.8
NRG1-MFc variant E8L (Fc fusion) | < 0.8
NRG1-MFc variant P29L (Fc fusion) | < 0.8

From paper PMC7566517
